Experimental data reported in US12098186.

Target: SARS-CoV-2 receptor-binding domain (RBD) of the spike protein (SARS-CoV-2) (UniProt P0DTC2)

## Bamlanivimab/ LY-CoV555 (antibody)
  Kd: 3.5 nM
